Assay results from patent publication US20260250420A1 (SICHUAN KELUN BIOTECH BIOPHARMACEUTICAL, published 2026).

T1: human PTK7 protein (extracellular sequence of human PTK7 with C-terminal 6×His tag) (human, UniProt Q13308 31-704)
T1 construct: extracellular domain; Expressed transiently in HEK293 cells; also called human PTK7-His; human PTK7-His protein
T1 sequence: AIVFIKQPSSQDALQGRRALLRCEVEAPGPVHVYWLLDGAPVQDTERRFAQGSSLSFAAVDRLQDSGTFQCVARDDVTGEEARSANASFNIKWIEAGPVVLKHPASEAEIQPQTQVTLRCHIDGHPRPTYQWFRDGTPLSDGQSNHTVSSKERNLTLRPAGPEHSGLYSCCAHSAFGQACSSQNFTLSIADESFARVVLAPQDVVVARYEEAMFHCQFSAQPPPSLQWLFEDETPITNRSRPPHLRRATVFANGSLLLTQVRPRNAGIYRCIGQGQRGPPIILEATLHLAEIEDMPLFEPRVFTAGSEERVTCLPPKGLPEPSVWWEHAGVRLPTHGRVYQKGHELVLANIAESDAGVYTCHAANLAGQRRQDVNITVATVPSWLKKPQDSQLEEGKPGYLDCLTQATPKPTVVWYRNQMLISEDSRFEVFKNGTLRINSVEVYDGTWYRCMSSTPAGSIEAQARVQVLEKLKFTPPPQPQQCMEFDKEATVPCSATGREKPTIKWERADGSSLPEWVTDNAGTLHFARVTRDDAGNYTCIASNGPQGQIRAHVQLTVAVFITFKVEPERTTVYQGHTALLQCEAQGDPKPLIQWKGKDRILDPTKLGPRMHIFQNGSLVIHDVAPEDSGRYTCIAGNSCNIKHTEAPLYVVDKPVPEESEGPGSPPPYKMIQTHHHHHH

T2: mouse PTK7 protein (extracellular sequence of mouse PTK7 with C-terminal 6×His tag) (mouse, UniProt Q8BKG3 23-696)
T2 construct: extracellular domain; Expressed transiently in HEK293 cells
T2 sequence: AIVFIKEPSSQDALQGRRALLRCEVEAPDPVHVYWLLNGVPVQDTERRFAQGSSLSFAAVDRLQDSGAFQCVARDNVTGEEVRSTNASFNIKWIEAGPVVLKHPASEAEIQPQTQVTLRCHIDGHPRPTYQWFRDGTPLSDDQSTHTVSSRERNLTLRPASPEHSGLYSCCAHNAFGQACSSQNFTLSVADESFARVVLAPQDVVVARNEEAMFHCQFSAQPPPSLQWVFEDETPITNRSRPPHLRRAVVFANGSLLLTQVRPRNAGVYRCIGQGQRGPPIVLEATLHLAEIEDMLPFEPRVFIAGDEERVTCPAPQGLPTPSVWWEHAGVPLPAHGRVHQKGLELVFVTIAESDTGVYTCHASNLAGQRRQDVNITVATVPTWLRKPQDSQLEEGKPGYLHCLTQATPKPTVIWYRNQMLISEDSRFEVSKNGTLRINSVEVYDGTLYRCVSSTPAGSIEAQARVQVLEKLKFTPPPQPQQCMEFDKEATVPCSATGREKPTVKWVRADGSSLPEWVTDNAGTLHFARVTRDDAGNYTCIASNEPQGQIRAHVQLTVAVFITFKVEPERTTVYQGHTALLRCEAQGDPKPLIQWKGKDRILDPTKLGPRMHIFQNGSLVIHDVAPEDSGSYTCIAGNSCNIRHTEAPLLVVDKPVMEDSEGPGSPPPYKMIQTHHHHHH

T3: human PTK7 on cells (tumor cells endogenously expressing PTK7); CHO-hPTK7, CHO-S-hPTK7 and 293T-hPTK7 … (human, UniProt Q13308 31-1070)
T3 construct: whole, on cells; The cell line of each value is named under assay; also called H1299; H358
T3 sequence (looked up): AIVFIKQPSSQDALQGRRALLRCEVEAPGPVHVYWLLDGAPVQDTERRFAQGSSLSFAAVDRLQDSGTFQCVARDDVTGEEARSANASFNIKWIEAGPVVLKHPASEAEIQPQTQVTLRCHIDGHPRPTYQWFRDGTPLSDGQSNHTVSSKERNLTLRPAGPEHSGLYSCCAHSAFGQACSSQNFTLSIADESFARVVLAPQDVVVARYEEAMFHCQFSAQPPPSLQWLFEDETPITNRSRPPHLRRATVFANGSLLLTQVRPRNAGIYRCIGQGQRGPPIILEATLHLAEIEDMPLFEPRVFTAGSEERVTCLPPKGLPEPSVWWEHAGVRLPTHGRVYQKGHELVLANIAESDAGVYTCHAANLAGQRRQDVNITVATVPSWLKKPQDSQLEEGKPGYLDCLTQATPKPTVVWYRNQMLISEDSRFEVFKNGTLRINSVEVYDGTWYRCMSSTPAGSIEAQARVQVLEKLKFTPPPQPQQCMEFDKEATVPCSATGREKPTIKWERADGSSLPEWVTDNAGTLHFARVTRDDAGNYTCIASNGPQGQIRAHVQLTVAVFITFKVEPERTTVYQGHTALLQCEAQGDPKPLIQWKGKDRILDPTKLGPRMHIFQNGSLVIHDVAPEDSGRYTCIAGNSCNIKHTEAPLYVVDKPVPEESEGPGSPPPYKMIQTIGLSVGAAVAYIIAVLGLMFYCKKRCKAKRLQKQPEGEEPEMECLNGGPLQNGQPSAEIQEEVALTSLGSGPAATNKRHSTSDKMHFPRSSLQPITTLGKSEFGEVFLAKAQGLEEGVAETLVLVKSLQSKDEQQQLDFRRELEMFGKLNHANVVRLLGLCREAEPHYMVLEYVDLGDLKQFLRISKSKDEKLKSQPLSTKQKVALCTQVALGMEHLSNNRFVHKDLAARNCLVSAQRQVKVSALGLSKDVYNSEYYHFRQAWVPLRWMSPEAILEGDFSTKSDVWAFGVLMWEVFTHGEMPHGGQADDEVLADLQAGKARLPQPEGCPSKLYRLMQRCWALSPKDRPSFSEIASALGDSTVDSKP


Legend:
[1] = target: T1, human PTK7 protein (extracellular …); assay: ELISA, coated human PTK7 protein 1 µg/ml
Protocol: Original data was imported into software for nonlinear curve fitting, and EC₅₀ of binding of each antibody to human PTK7 and monkey PTK7 was calculated, respectively. As shown in Table 1 and FIGS. 1A-1B, the screened antibodies could be bound to the human and monkey PTK7 proteins with affinity higher than that of the control antibody Hu24.

[2] = target: T2, mouse PTK7 protein (extracellular …); assay: BLI (ForteBio), antibody on Protein A sensor
From the text: The dynamic affinity of the control Hu24 and candidate antibodies 64A10HZ, 101A6HZ, 4E12HZ and 19C2HZ with human PTK7-His was detected by using ForteBio (Pall life sciences).
ELISA and ForteBio were adopted to detect binding of the anti-human PTK7 chimeric and humanized antibodies to the monkey, mouse and rat PTK7 proteins.

[3] = target: T3, human PTK7 on cells (tumor cells …); assay: competition flow cytometry on 293T-hPTK7 cells, streptavidin-PE; competitor: biotin-labelled 101A6HZ

Binder | EC50 [1] [µg/mL] | binding result [2] | IC50 (read off the curve) [3] [µg/mL]
Hu24 (PTK7 control antibody, taken from Hu24 in the Patent CN201580030255) (antibody) chain 1: QVQLVQSGPEVKKPGASVKVSCKASGYTFTDYAVHWVRQAPGKRLEWIGVISTYNDYTYNNQDFKGRVTMTRDTSASTAYMELSRLRSEDTAVYYCARGNSYFYALDYWGQGTSVTVSS chain 2: EIVLTQSPATLSLSPGERATLSCRASESVDSYGKSFMHWYQQKPGQAPRLLIYRASNLESGIPARFSGSGSGTDFTLTISSLEPEDFAVYYCQQSNEDPWTFGGGTKLEIK | 0.0457 | – | –
101A6HZ (anti-human PTK7 humanized antibody) (antibody, human IgG1, kappa) heavy: not shown light: DIVMTQSPDSLAVSLGERATINCKASQDVGSAVIWYQQKPGQSPKLLIYWASTRHTGVPDRFSGSGSGTDFTLTISSLQAEDVAVYYCQQYSSYPLTFGQGTKLEIKRTVAAPSVFIFPPSDEQLKSGTASVVCLLNNFYPREAKVQWKVDNALQSGNSQESVTEQDSKDSTYSLSSTLTLSKADYEKHKVYACEVTHQGLSSPVTKSFNRGEC | – | no binding | ~1
